Source: paper PMC10751915
Like-named read-outs stand apart in the source and are kept apart here.

Columns and labels:
FcRn [1] = biological target: FcRn (UniProt P55899)
[2] = biological target: FCGR3A (176Phe/F158) (CD16a) (UniProt P08637)
FCGR2A (167H) (CD32a) [3] = biological target: FCGR2A (167H) (CD32a) (UniProt P12318)
FCGR1 (CD64) [4] = biological target: FCGR1 (CD64) (UniProt P12314)
[5] = biological target: FCGR3A (176Val/V158) (CD16a) (UniProt P08637)
FCGR2A (167R) (CD32a) [6] = biological target: FCGR2A (167R) (CD32a) (UniProt P12318)
FCGR2A (167R) (CD32a) [7] = biological target: FCGR2A (167R) (CD32a) (UniProt P12318); remark: listed apart in the source
FcRn [8] = biological target: FcRn (UniProt P55899); remark: listed apart in the source
FCGR2A (167H) (CD32a) [9] = biological target: FCGR2A (167H) (CD32a) (UniProt P12318); remark: listed apart in the source
[10] = biological target: FCGR3A (176Phe/F158) (CD16a) (UniProt P08637); remark: listed apart in the source
FCGR1 (CD64) [11] = biological target: FCGR1 (CD64) (UniProt P12314); remark: listed apart in the source
[12] = biological target: FCGR3A (176Val/V158) (CD16a) (UniProt P08637); remark: listed apart in the source

UniProt P12314, sequence (P12314 16-292): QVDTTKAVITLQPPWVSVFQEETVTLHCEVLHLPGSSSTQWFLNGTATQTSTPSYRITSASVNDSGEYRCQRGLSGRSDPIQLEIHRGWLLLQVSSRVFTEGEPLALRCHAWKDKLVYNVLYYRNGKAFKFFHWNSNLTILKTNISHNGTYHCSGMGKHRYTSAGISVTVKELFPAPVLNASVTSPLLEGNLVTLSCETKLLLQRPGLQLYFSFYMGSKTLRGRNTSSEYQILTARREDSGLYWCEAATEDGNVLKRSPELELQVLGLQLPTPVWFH
UniProt P55899, sequence (P55899 24-297): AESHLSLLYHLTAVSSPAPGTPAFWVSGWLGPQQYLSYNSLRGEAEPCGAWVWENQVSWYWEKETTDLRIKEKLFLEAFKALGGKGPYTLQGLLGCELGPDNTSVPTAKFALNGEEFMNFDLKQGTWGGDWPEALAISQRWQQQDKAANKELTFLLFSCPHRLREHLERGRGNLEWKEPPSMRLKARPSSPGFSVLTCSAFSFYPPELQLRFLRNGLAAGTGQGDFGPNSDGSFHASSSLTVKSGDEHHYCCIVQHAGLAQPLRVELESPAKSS

IC50 (FcRn [1])	IC50 [2]	IC50 (FCGR2A (167H) (CD32a) [3])	IC50 (FCGR1 (CD64) [4])	IC50 [5]	IC50 (FCGR2A (167R) (CD32a) [6])	IC50 (FCGR2A (167R) (CD32a) [7])	IC50 (FcRn [8])	IC50 (FCGR2A (167H) (CD32a) [9])	IC50 [10]	IC50 (FCGR1 (CD64) [11])	IC50 [12]	Substance
0.97 nM	385 nM	137 nM	6 nM	505 nM	286 nM							KVA12123 (YTE, hIgG1) (from UniProt P01857)
						67.3 nM	5.2 nM	29.1 nM	53.3 nM	1.59 nM	95.1 nM	KVA12.1 (WT, hIgG1) (from UniProt P01857)
